Assay results published in paper PMC5148612, “Mechanism of cargo-directed Atg8 conjugation during selective autophagy” (eLife, 2016).
Blank lines part the entries; values can stand above or below the binder they belong to.

Assays:
Conditions in all cases: both partners purified
[1] = molecular target: T1, GST-Atg19 (S. cerevisiae, UniProt P35193 1-415); assay: pull-down; GST-fused bait 20 µM and GST-free prey 5 µM with glutathione Sepharose 4B, 1 hr at 4°C; washed with 25 mM HEPES pH 7.5, 150 mM NaCl, 1 mM DTT; anti-Atg5 Western blot (Figure 2E, Figure 3—figure supplement 1, Figure 4C)
T1 construct: Atg19, S. cerevisiae cargo receptor; also called full length GST-Atg19; Atg19 full length; source: E. coli Rosetta pLysS, purified; not shown: GST, N-terminal, kept
T1 sequence (looked up): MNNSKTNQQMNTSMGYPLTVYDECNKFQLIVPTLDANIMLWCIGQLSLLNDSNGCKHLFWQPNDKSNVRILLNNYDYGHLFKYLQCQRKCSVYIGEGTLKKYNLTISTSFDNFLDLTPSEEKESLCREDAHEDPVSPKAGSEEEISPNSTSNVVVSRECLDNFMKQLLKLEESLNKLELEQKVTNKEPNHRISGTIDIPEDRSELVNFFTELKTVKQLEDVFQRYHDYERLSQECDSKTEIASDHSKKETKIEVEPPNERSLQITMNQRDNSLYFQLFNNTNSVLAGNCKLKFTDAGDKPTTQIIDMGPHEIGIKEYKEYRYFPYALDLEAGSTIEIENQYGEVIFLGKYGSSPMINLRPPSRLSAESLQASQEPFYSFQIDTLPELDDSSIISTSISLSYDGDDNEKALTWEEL

[2] = molecular target: T2, Atg5-Atg16 (1–46) (S. cerevisiae, UniProt Q12380 1-294; Q03818 1-46); assay: as above
T2 construct: Atg5, S. cerevisiae; Atg16, S. cerevisiae, first 46 amino acids; the His tag of Atg5 is followed by a TEV site; also called Atg5 stabilized with the N-terminal helix of Atg16; Atg5-Atg16 (1–46) wild type; source: E. coli, co-expressed and purified in complex
T2 sequence 1: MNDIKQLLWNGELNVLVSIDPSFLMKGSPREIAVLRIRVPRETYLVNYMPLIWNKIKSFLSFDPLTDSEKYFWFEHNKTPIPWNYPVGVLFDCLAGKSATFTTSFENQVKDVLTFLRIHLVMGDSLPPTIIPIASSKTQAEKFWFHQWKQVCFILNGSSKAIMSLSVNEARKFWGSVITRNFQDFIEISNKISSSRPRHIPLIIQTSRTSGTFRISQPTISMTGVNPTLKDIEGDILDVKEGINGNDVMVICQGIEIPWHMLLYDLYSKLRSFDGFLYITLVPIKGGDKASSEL
T2 sequence 2: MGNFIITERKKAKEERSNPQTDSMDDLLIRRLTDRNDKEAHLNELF

[3] = molecular target: T3, Atg5-mCherry-Atg16 (1–46) complex (S. cerevisiae, UniProt Q12380 1-294; Q03818 1-46); assay: microscopy-based protein-protein interaction assay on beads; glutathione beads coated with GST-fused proteins at 30 µM, Atg5-mCherry-Atg16 (1–46) 18 µM, equilibrium (Figure 3B, C)
T3 construct: Atg5, S. cerevisiae; Atg16, S. cerevisiae, first 46 amino acids; a TEV site follows the His tag of Atg5; no cleavage is described; source: E. coli Rosetta pLysS, co-expressed, purified (Ni-NTA, Superdex 200); not shown: mCherry, C-terminal, kept
T3 sequence (looked up) 1: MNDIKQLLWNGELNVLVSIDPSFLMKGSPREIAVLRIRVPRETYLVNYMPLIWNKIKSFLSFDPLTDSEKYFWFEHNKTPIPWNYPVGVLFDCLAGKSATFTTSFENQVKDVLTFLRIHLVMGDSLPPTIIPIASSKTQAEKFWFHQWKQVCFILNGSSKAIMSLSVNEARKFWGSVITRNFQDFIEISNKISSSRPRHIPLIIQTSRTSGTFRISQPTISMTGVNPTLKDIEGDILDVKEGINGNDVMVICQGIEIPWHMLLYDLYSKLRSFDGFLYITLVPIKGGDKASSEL
T3 sequence (looked up) 2: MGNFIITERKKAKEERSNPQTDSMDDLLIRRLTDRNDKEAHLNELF

[4] = molecular target: T4, Atg12~Atg5 conjugate (S. cerevisiae, UniProt P38316 1-186; Q12380 1-294, conjugated to Atg5 (Atg12~Atg5 protein conjugate) | conjugated to Atg12); assay: SEC; separately purified proteins mixed in a molar ratio 1:1 for 30 min at 4°C or on ice; the resulting complex purified on Superdex S200 16/60
T4 construct: Atg12, S. cerevisiae; Atg5, S. cerevisiae; the two chains are covalently joined; source: E. coli Rosetta pLysS, co-expression of 6xHis-Atg5, Atg12, Atg7 and Atg10, purified
T4 sequence (looked up) 1: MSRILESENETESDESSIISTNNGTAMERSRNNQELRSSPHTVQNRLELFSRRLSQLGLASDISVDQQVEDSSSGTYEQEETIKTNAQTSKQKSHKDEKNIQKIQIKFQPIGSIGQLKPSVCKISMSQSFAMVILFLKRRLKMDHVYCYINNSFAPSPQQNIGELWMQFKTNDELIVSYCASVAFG
T4 sequence (looked up) 2: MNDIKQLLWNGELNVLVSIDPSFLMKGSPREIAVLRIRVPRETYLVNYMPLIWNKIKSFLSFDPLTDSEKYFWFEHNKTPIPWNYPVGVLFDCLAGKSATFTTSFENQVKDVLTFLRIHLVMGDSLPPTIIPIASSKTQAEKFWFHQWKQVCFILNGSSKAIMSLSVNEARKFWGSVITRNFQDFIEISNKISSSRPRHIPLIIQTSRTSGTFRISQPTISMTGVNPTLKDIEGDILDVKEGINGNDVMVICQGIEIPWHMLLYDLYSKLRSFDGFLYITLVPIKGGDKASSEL

[5] = molecular target: T5, Atg5 (S. cerevisiae, UniProt Q12380 1-294); assay: as above
T5 construct: Atg5, S. cerevisiae; in the co-purification with Atg16 (1–46) the GST was still on the protein while it was held on glutathione beads; also called GST-Atg5; source: E. coli Rosetta pLysS, on glutathione beads, cleaved off with thrombin; not shown: GST, N-terminal, cleaved
T5 sequence (looked up): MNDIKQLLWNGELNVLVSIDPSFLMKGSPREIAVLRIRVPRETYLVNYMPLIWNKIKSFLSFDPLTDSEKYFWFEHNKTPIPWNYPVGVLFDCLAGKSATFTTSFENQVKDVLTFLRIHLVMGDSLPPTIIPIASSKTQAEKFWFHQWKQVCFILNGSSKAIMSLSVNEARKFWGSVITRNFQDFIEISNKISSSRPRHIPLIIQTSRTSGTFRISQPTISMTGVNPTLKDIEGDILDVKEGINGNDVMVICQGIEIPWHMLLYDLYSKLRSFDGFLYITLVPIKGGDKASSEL

B1: Atg5(R208E)-Atg16 (1–46) (complex, S. cerevisiae)
chain 1: MNDIKQLLWNGELNVLVSIDPSFLMKGSPREIAVLRIRVPRETYLVNYMPLIWNKIKSFLSFDPLTDSEKYFWFEHNKTPIPWNYPVGVLFDCLAGKSATFTTSFENQVKDVLTFLRIHLVMGDSLPPTIIPIASSKTQAEKFWFHQWKQVCFILNGSSKAIMSLSVNEARKFWGSVITRNFQDFIEISNKISSSRPRHIPLIIQTSETSGTFRISQPTISMTGVNPTLKDIEGDILDVKEGINGNDVMVICQGIEIPWHMLLYDLYSKLRSFDGFLYITLVPIKGGDKASSEL
chain 2: MGNFIITERKKAKEERSNPQTDSMDDLLIRRLTDRNDKEAHLNELF
notes: Atg5, S. cerevisiae; Atg16, S. cerevisiae, first 46 amino acids; source: E. coli, co-expressed and purified in complex
binding result [1]: binds

B2: GST-Atg19(365–407) (domain or fragment, S. cerevisiae, UniProt P35193 365-407, looked up)
chain: SAESLQASQEPFYSFQIDTLPELDDSSIISTSISLSYDGDDNE
notes: Atg19, S. cerevisiae; also called Atg19 C-terminal domain with the canonical AIM motif deleted; source: E. coli Rosetta pLysS, purified; not shown: GST, N-terminal, kept
binding result [2]: binds
binding result [3]: binds

The next lines start with the values.

binding result [4]: binds
binding result [5]: binds
B3: Atg16 (natural protein, S. cerevisiae, UniProt Q03818 1-150, looked up)
chain: MGNFIITERKKAKEERSNPQTDSMDDLLIRRLTDRNDKEAHLNELFQDNSGAIGGNIVSHDDALLNTLAILQKELKSKEQEIRRLKEVIALKNKNTERLNDELISGTIENNVLQQKLSDLKKEHSQLVARWLKKTEKETEAMNSEIDGTK
notes: Atg16, S. cerevisiae; also called purified Atg16; GST-Atg16; source: E. coli Rosetta pLysS, purified

binding result [5]: binds
B4: Atg16-meGFP (natural protein, S. cerevisiae, UniProt Q03818 1-150, looked up)
chain: MGNFIITERKKAKEERSNPQTDSMDDLLIRRLTDRNDKEAHLNELFQDNSGAIGGNIVSHDDALLNTLAILQKELKSKEQEIRRLKEVIALKNKNTERLNDELISGTIENNVLQQKLSDLKKEHSQLVARWLKKTEKETEAMNSEIDGTK
notes: Atg16, S. cerevisiae; source: E. coli Rosetta pLysS, purified; not shown: meGFP, C-terminal, kept
